Molecular target: endogenous Tom40 (N. crassa (endogenous in isolated mitochondria)) (UniProt P24391)
Experiment: cross-linking

With “endogenous Tom40 (from UniProt P24391 1-349) (natural protein)” the stoichiometry N was 2.

Reference: publication PMC2156174
